Measurements published in article PMC10557868, “Piperacetazine Directly Binds to the PAX3::FOXO1 Fusion Protein and Inhibits Its Transcriptional Activity”.

What was measured:
[1] = molecular target: T1, PAX3::FOXO1 fusion protein (UniProt P23760 1-391+Q12778:211-655, internal_change); experiment: SPR; DNA 1.25-80 nM; SPR, Biacore T-200, CM5 chip; PBS-P (20 mM phosphate pH 7.4, 137 mM NaCl, 2.7 mM KCl, 0.05% P20) stated as immobilization running buffer, with 5% DMSO for small molecules; temperature not stated; details: protein: recombinant; tags: C-terminal 12xHis; N-terminal internal HA tag; blunt
T1 sequence (P23760 other isoform, or with tags, fused parts or gaps): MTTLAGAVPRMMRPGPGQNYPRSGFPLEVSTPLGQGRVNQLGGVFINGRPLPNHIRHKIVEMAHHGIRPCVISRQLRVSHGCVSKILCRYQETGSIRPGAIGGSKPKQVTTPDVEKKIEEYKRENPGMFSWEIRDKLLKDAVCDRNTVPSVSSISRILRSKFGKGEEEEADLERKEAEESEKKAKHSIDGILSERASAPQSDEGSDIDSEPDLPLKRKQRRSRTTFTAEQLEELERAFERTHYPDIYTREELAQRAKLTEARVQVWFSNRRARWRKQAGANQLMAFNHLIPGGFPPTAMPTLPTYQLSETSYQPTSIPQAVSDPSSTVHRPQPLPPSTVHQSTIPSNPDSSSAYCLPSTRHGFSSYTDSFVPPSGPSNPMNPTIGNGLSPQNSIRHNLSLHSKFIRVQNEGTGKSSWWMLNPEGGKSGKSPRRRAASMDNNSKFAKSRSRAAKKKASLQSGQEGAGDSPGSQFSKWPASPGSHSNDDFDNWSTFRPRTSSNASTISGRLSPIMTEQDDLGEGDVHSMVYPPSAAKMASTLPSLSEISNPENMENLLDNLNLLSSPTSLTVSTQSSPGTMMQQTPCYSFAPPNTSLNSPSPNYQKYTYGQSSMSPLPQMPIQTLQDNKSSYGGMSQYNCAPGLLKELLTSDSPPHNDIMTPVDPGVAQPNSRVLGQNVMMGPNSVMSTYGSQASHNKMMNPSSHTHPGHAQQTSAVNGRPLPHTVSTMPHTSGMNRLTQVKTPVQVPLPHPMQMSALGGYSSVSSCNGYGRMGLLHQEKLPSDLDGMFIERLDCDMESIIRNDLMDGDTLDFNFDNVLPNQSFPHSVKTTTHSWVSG

[2] = molecular target: T1, PAX3::FOXO1 fusion protein; experiment: SPR; SPR, Biacore T-200, CM5 chip; PBS-P (20 mM phosphate pH 7.4, 137 mM NaCl, 2.7 mM KCl, 0.05% P20) stated as immobilization running buffer, with 5% DMSO for small molecules; temperature not stated; details: protein: recombinant; tags: C-terminal 12xHis; N-terminal internal HA tag; blunt

B1: EWS::FLI1-specific oligonucleotide (GGAA repeats) (dsDNA)
DNA 1: ACCGGAAGGAAGGAAGGAAGGAAGGAAGGAAGTG
DNA 2: CACTTCCTTCCTTCCTTCCTTCCTTCCTTCCGGT
binding result [1]: no binding

B2: PAX3::FOXO1-specific oligonucleotide (dsDNA)
DNA 1: ACCGTGACTAATTTAATTAGTCACG
DNA 2: CGTGACTAATTAAATTAGTCACGGT
Kd [2]: 6.3 nM
